*1 amine or outer side, *2 acyl side, *3 side chain or, on linkers, in order; H or OH if unused. Bridges are numbered along the chain shown (N, C = ends). Where no end group is shown, it is not given here. Side-chain parts run from the residue outwards. The star is where a group is joined. X1 = (S)‑4‑Carboxy‑4‑(17-carboxyheptadecanoylamino)butyryl, O=C(O)CCCCCCCCCCCCCCCCC(=O)N[C@@H](CCC(=O)*)C(=O)O; C20 diacid = O=C(O)CCCCCCCCCCCCCCCCCCC(=O)*; γGlu = O=C(O)[C@H](CCC(=O)[*:2])N[*:1]; Trx = NC[C@H]1CC[C@H](C(=O)O)CC1; AEEA = NCCOCCOCC(=O)O
T1: Amylin 3(a) receptor (human calcitonin receptor (CTa) with RAMP-3) (human, UniProt P30988 25-474; O60896 24-148, limits assumed)
T1 sequence (looked up) 1: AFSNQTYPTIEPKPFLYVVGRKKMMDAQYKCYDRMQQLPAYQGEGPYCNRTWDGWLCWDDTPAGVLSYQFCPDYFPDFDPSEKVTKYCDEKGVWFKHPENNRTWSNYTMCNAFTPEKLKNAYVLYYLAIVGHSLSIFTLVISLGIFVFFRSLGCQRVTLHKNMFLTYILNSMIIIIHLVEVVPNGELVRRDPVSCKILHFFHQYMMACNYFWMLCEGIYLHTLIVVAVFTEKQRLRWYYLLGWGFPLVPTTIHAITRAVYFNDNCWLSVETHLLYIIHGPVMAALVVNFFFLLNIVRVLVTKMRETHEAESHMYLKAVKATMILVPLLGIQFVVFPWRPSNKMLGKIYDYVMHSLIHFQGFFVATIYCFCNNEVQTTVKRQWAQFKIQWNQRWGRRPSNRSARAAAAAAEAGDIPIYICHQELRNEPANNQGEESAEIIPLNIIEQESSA
T1 sequence (looked up) 2: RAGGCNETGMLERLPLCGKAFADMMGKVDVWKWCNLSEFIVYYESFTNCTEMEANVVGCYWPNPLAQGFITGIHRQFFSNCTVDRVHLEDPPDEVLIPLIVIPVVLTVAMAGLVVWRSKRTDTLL

B1: N-alpha-[(S)-4-Carboxy-4-(19-carboxynonadecanoylamino)butyryl]-His-[His1,His17]-pramlintide (peptide)
peptide: HHCNTATCATQRLANFLHHSSNNFGPILPPTNVGSNTY-NH2
modifications: disulfide 3-8; not fully specified (N-terminus); printed as N-alpha-[(S)-4-Carboxy-4-(19-carboxynonadecanoylamino)butyryl]-His-[His1,His17]-pramlintide
B2: N-alpha-[(S)-4-Carboxy-4-(17-carboxyheptadecanoylamino)butyryl]-Arg-[Arg17]-pramlintide (peptide)
peptide: X1-RKCNTATCATQRLANFLRHSSNNFGPILPPTNVGSNTY-NH2
modifications: disulfide 3-8
SMILES: CC[C@H](C)[C@H](NC(=O)[C@@H]1CCCN1C(=O)CNC(=O)[C@H](Cc1ccccc1)NC(=O)[C@H](CC(N)=O)NC(=O)[C@H](CC(N)=O)NC(=O)[C@H](CO)NC(=O)[C@H](CO)NC(=O)[C@H](Cc1c[nH]cn1)NC(=O)[C@H](CCCNC(=N)N)NC(=O)[C@H](CC(C)C)NC(=O)[C@H](Cc1ccccc1)NC(=O)[C@H](CC(N)=O)NC(=O)[C@H](C)NC(=O)[C@H](CC(C)C)NC(=O)[C@H](CCCNC(=N)N)NC(=O)[C@H](CCC(N)=O)NC(=O)[C@@H](NC(=O)[C@H](C)NC(=O)[C@@H]1CSSC[C@H](NC(=O)[C@H](CCCCN)NC(=O)[C@H](CCCNC(=N)N)NC(=O)CC[C@H](NC(=O)CCCCCCCCCCCCCCCCC(=O)O)C(=O)O)C(=O)N[C@@H](CC(N)=O)C(=O)N[C@@H]([C@@H](C)O)C(=O)N[C@@H](C)C(=O)N[C@@H]([C@@H](C)O)C(=O)N1)[C@@H](C)O)C(=O)N[C@@H](CC(C)C)C(=O)N1CCC[C@H]1C(=O)N1CCC[C@H]1C(=O)N[C@H](C(=O)N[C@@H](CC(N)=O)C(=O)N[C@H](C(=O)NCC(=O)N[C@@H](CO)C(=O)N[C@@H](CC(N)=O)C(=O)N[C@H](C(=O)N[C@@H](Cc1ccc(O)cc1)C(N)=O)[C@@H](C)O)C(C)C)[C@@H](C)O
B3: N-alpha-[(S)-4-Carboxy-4-(19-carboxynonadecanoylamino)butyryl]-[His1,Arg17]-pramlintide (peptide)
peptide: {C20 diacid-γGlu}-HCNTATCATQRLANFLRHSSNNFGPILPPTNVGSNTY-NH2
modifications: disulfide 2-7
SMILES: CC[C@H](C)[C@H](NC(=O)[C@@H]1CCCN1C(=O)CNC(=O)[C@H](Cc1ccccc1)NC(=O)[C@H](CC(N)=O)NC(=O)[C@H](CC(N)=O)NC(=O)[C@H](CO)NC(=O)[C@H](CO)NC(=O)[C@H](Cc1c[nH]cn1)NC(=O)[C@H](CCCNC(=N)N)NC(=O)[C@H](CC(C)C)NC(=O)[C@H](Cc1ccccc1)NC(=O)[C@H](CC(N)=O)NC(=O)[C@H](C)NC(=O)[C@H](CC(C)C)NC(=O)[C@H](CCCNC(=N)N)NC(=O)[C@H](CCC(N)=O)NC(=O)[C@@H](NC(=O)[C@H](C)NC(=O)[C@@H]1CSSC[C@H](NC(=O)[C@H](Cc2c[nH]cn2)NC(=O)CC[C@H](NC(=O)CCCCCCCCCCCCCCCCCCC(=O)O)C(=O)O)C(=O)N[C@@H](CC(N)=O)C(=O)N[C@@H]([C@@H](C)O)C(=O)N[C@@H](C)C(=O)N[C@@H]([C@@H](C)O)C(=O)N1)[C@@H](C)O)C(=O)N[C@@H](CC(C)C)C(=O)N1CCC[C@H]1C(=O)N1CCC[C@H]1C(=O)N[C@H](C(=O)N[C@@H](CC(N)=O)C(=O)N[C@H](C(=O)NCC(=O)N[C@@H](CO)C(=O)N[C@@H](CC(N)=O)C(=O)N[C@H](C(=O)N[C@@H](Cc1ccc(O)cc1)C(N)=O)[C@@H](C)O)C(C)C)[C@@H](C)O
B4: N-alpha-[(S)-4-Carboxy-4-(17-carboxyheptadecanoylamino)butyryl]-His-[His1,His17]-pramlintide (peptide)
peptide: X1-HHCNTATCATQRLANFLHHSSNNFGPILPPTNVGSNTY-NH2
modifications: disulfide 3-8
SMILES: CC[C@H](C)[C@H](NC(=O)[C@@H]1CCCN1C(=O)CNC(=O)[C@H](Cc1ccccc1)NC(=O)[C@H](CC(N)=O)NC(=O)[C@H](CC(N)=O)NC(=O)[C@H](CO)NC(=O)[C@H](CO)NC(=O)[C@H](Cc1c[nH]cn1)NC(=O)[C@H](Cc1c[nH]cn1)NC(=O)[C@H](CC(C)C)NC(=O)[C@H](Cc1ccccc1)NC(=O)[C@H](CC(N)=O)NC(=O)[C@H](C)NC(=O)[C@H](CC(C)C)NC(=O)[C@H](CCCNC(=N)N)NC(=O)[C@H](CCC(N)=O)NC(=O)[C@@H](NC(=O)[C@H](C)NC(=O)[C@@H]1CSSC[C@H](NC(=O)[C@H](Cc2c[nH]cn2)NC(=O)[C@H](Cc2c[nH]cn2)NC(=O)CC[C@H](NC(=O)CCCCCCCCCCCCCCCCC(=O)O)C(=O)O)C(=O)N[C@@H](CC(N)=O)C(=O)N[C@@H]([C@@H](C)O)C(=O)N[C@@H](C)C(=O)N[C@@H]([C@@H](C)O)C(=O)N1)[C@@H](C)O)C(=O)N[C@@H](CC(C)C)C(=O)N1CCC[C@H]1C(=O)N1CCC[C@H]1C(=O)N[C@H](C(=O)N[C@@H](CC(N)=O)C(=O)N[C@H](C(=O)NCC(=O)N[C@@H](CO)C(=O)N[C@@H](CC(N)=O)C(=O)N[C@H](C(=O)N[C@@H](Cc1ccc(O)cc1)C(N)=O)[C@@H](C)O)C(C)C)[C@@H](C)O
B5: N-alpha-[(S)-4-Carboxy-4-(19-carboxynonadecanoylamino)butyryl]-His-[His1,Arg17]-pramlintide (peptide)
peptide: HHCNTATCATQRLANFLRHSSNNFGPILPPTNVGSNTY-NH2
modifications: disulfide 3-8; not fully specified (N-terminus); printed as N-alpha-[(S)-4-Carboxy-4-(19-carboxynonadecanoylamino)butyryl]-His-[His1,Arg17]-pramlintide
B6: N-alpha-[4-Carboxy-4-({4-[(19-carboxynonadecanoylamino)methyl]transcyclohexanecarbonyl}amino)butyryl]-[His1,His17]-pramlintide (peptide)
peptide: {C20 diacid-Trx-γGlu}-HCNTATCATQRLANFLHHSSNNFGPILPPTNVGSNTY-NH2
modifications: disulfide 2-7
SMILES: CC[C@H](C)[C@H](NC(=O)[C@@H]1CCCN1C(=O)CNC(=O)[C@H](Cc1ccccc1)NC(=O)[C@H](CC(N)=O)NC(=O)[C@H](CC(N)=O)NC(=O)[C@H](CO)NC(=O)[C@H](CO)NC(=O)[C@H](Cc1c[nH]cn1)NC(=O)[C@H](Cc1c[nH]cn1)NC(=O)[C@H](CC(C)C)NC(=O)[C@H](Cc1ccccc1)NC(=O)[C@H](CC(N)=O)NC(=O)[C@H](C)NC(=O)[C@H](CC(C)C)NC(=O)[C@H](CCCNC(=N)N)NC(=O)[C@H](CCC(N)=O)NC(=O)[C@@H](NC(=O)[C@H](C)NC(=O)[C@@H]1CSSC[C@H](NC(=O)[C@H](Cc2c[nH]cn2)NC(=O)CC[C@H](NC(=O)[C@H]2CC[C@H](CNC(=O)CCCCCCCCCCCCCCCCCCC(=O)O)CC2)C(=O)O)C(=O)N[C@@H](CC(N)=O)C(=O)N[C@@H]([C@@H](C)O)C(=O)N[C@@H](C)C(=O)N[C@@H]([C@@H](C)O)C(=O)N1)[C@@H](C)O)C(=O)N[C@@H](CC(C)C)C(=O)N1CCC[C@H]1C(=O)N1CCC[C@H]1C(=O)N[C@H](C(=O)N[C@@H](CC(N)=O)C(=O)N[C@H](C(=O)NCC(=O)N[C@@H](CO)C(=O)N[C@@H](CC(N)=O)C(=O)N[C@H](C(=O)N[C@@H](Cc1ccc(O)cc1)C(N)=O)[C@@H](C)O)C(C)C)[C@@H](C)O
B7: N-alpha-[(S)-4-Carboxy-4-(19-carboxynonadecanoylamino)butyryl]-His-[His17]-pramlintide (peptide)
peptide: HKCNTATCATQRLANFLHHSSNNFGPILPPTNVGSNTY-NH2
modifications: disulfide 3-8; not fully specified (N-terminus); printed as N-alpha-[(S)-4-Carboxy-4-(19-carboxynonadecanoylamino)butyryl]-His-[His17]-pramlintide
B8: N-alpha-[2-(2-{2-[4-(S)-Carboxy-4-(19-carboxynonadecanoylamino)butyrylamino]ethoxy}ethoxy)acetyl]-His-[His1,Arg17]-pramlintide (peptide)
peptide: {C20 diacid-γGlu-AEEA}-HHCNTATCATQRLANFLRHSSNNFGPILPPTNVGSNTY-NH2
modifications: disulfide 3-8
SMILES: CC[C@H](C)[C@H](NC(=O)[C@@H]1CCCN1C(=O)CNC(=O)[C@H](Cc1ccccc1)NC(=O)[C@H](CC(N)=O)NC(=O)[C@H](CC(N)=O)NC(=O)[C@H](CO)NC(=O)[C@H](CO)NC(=O)[C@H](Cc1c[nH]cn1)NC(=O)[C@H](CCCNC(=N)N)NC(=O)[C@H](CC(C)C)NC(=O)[C@H](Cc1ccccc1)NC(=O)[C@H](CC(N)=O)NC(=O)[C@H](C)NC(=O)[C@H](CC(C)C)NC(=O)[C@H](CCCNC(=N)N)NC(=O)[C@H](CCC(N)=O)NC(=O)[C@@H](NC(=O)[C@H](C)NC(=O)[C@@H]1CSSC[C@H](NC(=O)[C@H](Cc2c[nH]cn2)NC(=O)[C@H](Cc2c[nH]cn2)NC(=O)COCCOCCNC(=O)CC[C@H](NC(=O)CCCCCCCCCCCCCCCCCCC(=O)O)C(=O)O)C(=O)N[C@@H](CC(N)=O)C(=O)N[C@@H]([C@@H](C)O)C(=O)N[C@@H](C)C(=O)N[C@@H]([C@@H](C)O)C(=O)N1)[C@@H](C)O)C(=O)N[C@@H](CC(C)C)C(=O)N1CCC[C@H]1C(=O)N1CCC[C@H]1C(=O)N[C@H](C(=O)N[C@@H](CC(N)=O)C(=O)N[C@H](C(=O)NCC(=O)N[C@@H](CO)C(=O)N[C@@H](CC(N)=O)C(=O)N[C@H](C(=O)N[C@@H](Cc1ccc(O)cc1)C(N)=O)[C@@H](C)O)C(C)C)[C@@H](C)O

Each binder was assayed against T1, Amylin 3(a) receptor (human calcitonin …) (assay: cell-based or functional assay).

Row | Binder | Potency Luciferase [nM]
1 | {C20 diacid-γGlu}-HCNTATCATQRLANFLHHSSNNFGPILPPTNVGSNTY-NH2 (disulfide 2-7) [N-alpha-[(S)-4-Carboxy-4-(19-carboxynonadecanoylamino)butyryl]-[His1,His17]-pramlintide] | 0.07
2 | B1 | 0.1
3 | B2 | 0.05
4 | {C20 diacid-4‑aminobutyryl}-CNTATCATQRLANFLHHSSNNFGPILPPTNVGSNTY-NH2 (disulfide 1-6) [N-alpha-[4-(19-Carboxynonadecanoylamino)butyryl]-[His17]-pramlintide (2-37)] | 0.06
5 | B3 | 0.1
6 | B4 | 0.02
7 | KCK([AEEA-Glu-Glu-C20 diacid])TATCATQRLANFLHHSSDNFGPILPPTNVGSNTY-NH2 (disulfide 2-7) | 0.4
8 | B5 | 0.1
9 | B6 | 0.1
10 | B7 | 0.1
11 | B8 | 0.2
12 | X1-HCNTATCATQRLANFLHHSSNNFGPILPPTNVGSNTY-NH2 (disulfide 2-7) [N-alpha-[(S)-4-Carboxy-4-(17-carboxyheptadecanoylamino)butyryl]-[His1,His17]-pramlintide] | 0.08

Source: US20110105394A1 (Novo Nordisk, published 2011)
